Key:
[1] = biological target: T1, 4-chlorobenzoate:CoA ligase (CBL; CBAL) (Alcaligenes sp. AL3007, UniProt Q8GN86); experiment: coupled AMP-forming assay, inhibition kinetics; type: biochemical
T1 sequence (Q8GN86 1-504): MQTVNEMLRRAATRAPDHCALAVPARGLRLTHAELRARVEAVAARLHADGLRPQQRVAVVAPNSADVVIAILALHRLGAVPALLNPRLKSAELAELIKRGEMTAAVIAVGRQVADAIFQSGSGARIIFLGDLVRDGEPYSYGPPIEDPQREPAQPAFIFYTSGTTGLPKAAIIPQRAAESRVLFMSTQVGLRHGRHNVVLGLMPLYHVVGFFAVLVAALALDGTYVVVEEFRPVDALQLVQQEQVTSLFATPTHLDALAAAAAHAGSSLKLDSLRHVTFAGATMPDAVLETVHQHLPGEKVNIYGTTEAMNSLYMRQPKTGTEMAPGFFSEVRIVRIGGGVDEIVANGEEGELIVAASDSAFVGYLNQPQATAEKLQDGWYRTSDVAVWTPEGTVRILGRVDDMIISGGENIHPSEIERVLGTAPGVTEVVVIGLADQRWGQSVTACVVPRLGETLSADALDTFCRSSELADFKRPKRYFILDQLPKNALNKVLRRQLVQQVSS

[2] = biological target: T1, 4-chlorobenzoate:CoA ligase (CBL; CBAL); experiment: direct spectrophotometric assay at […] nm, inhibition kinetics; type: biochemical
[3] = substrate: CC(C)(COP(=O)(O)OP(=O)(O)OC[C@H]1O[C@@H](n2cnc3c(N)ncnc32)[C@H](O)[C@@H]1OP(=O)(O)O)[C@@H](O)C(=O)NCCC(=O)NCCS; experiment: coupled AMP-forming assay, initial velocity; type: biochemical, Alcaligenes sp. AL3007; conditions: 3.5 mM ATP, 4-methylbenzoate varied, 15 mM MgCl2, pH 7.5, 25 °C
[4] = substrate: Nc1ncnc2c1ncn2[C@@H]1O[C@H](COP(=O)(O)OP(=O)(O)OP(=O)(O)O)[C@@H](O)[C@H]1O; experiment: coupled AMP-forming assay, initial velocity; type: biochemical, Alcaligenes sp. AL3007; conditions: 200 μM 4-methylbenzoate, CoA varied, 15 mM MgCl2, pH 7.5, 25 °C
purified protein = substrate: Cc1ccc(C(=O)O)cc1; experiment: purified protein; conditions: 3.5 mM ATP, CoA varied, 15 mM MgCl2, pH 7.5, 25 °C

Which Ki [1] does the source give for `O=P(O)(O)OP(=O)(O)O` [PPi] here?
Its Ki is 95 ± 10 µM.

`Nc1ncnc2c1ncn2[C@@H]1O[C@H](COP(=O)(O)O)[C@@H](O)[C@H]1O` [AMP] was tested. Which Ki [2] did it give?
Its Ki is 120 ± 20 µM.

How did the Ki [1] turn out when `CC(C)(COP(=O)(O)OP(=O)(O)OC[C@H]1O[C@@H](n2cnc3c(N)ncnc32)[C@H](O)[C@@H]1OP(=O)(O)O)[C@@H](O)C(=O)NCCC(=O)NCCSCc1ccc(Cl)cc1` [4-chlorobenzyl-CoA] was run?
Its Ki is 45 ± 10 µM.

For `CC(C)(COP(=O)(O)OP(=O)(O)OC[C@H]1O[C@@H](n2cnc3c(N)ncnc32)[C@H](O)[C@@H]1OP(=O)(O)O)[C@@H](O)C(=O)NCCC(=O)NCCSCC(=O)c1ccc(Cl)cc1` [4-CP-CoA, 4-chlorophenacyl-CoA], which Ki [1] is on record?
Its Ki is 21 ± 8 µM.

B1: 4-chlorobenzoate:CoA ligase (CBL; CBAL) (Alcaligenes sp. AL3007) (protein)
chain: T1 sequence (Q8GN86 1-504)
With B1 as the molecule, how does the Km [3] read?
Its Km is 160 ± 20 µM.

And the kcat [3]?
The kcat was 8.0 ± 0.6 s⁻¹.

What about the Km [4] of the same molecule?
Its Km is 180 ± 15 µM.

What about the kcat [4] of the same molecule?
The kcat was 8.2 ± 0.3 s⁻¹.

And the Km (purified protein)?
The Km was 30 ± 5 µM.

And the kcat (purified protein)?
The kcat was 8.0 ± 0.6 s⁻¹.
